{"source": "the Human Domainome abundance scans (Beltran et al. 2025)", "parents": {"B1": {"name": "Gamma-crystallin C, residues 4 to 79; numbered along this chain, P07315 (parent)", "chain": "ITFYEDRAFQGRSYETTTDCPNLQPYFSRCNSIRVESGCWMLYERPNYQGQQYLLRRGEYPDYQQWMGLSDSIRSC"}}, "note": "± gives the uncertainty stated by the source.", "data": [{"variants_of": "B1", "experiment": "abundance fitness (aPCA) (normalised: wild type 0, dead -1); higher = more abundant; growth selection in yeast, the domain comes from the species named", "details": "Homo sapiens", "values": [{"variant": "Q49G", "abundance fitness": "-0.045 ± 0.052"}, {"variant": "Q49K", "abundance fitness": "-0.056 ± 0.18"}, {"variant": "Q49F", "abundance fitness": "-0.298 ± 0.23"}, {"variant": "M67E", "abundance fitness": "-0.131 ± 0.081"}, {"variant": "M67C", "abundance fitness": "-0.173 ± 0.12"}, {"variant": "M67A", "abundance fitness": "-0.03 ± 0.057"}, {"variant": "Y26Q", "abundance fitness": "-0.077 ± 0.19"}, {"variant": "Y26S", "abundance fitness": "0.045 ± 0.097"}, {"variant": "Y26N", "abundance fitness": "0.052 ± 0.38"}, {"variant": "C76I", "abundance fitness": "0.074 ± 0.083"}, {"variant": "S75G", "abundance fitness": "-0.069 ± 0.062"}, {"variant": "S75D", "abundance fitness": "-0.836 ± 0.41"}, {"variant": "S75T", "abundance fitness": "-0.828 ± 0.17"}, {"variant": "R74L", "abundance fitness": "0.023 ± 0.049"}, {"variant": "R74D", "abundance fitness": "0.104 ± 0.15"}, {"variant": "R74W", "abundance fitness": "0.119 ± 0.059"}, {"variant": "R74Y", "abundance fitness": "0.105 ± 0.14"}, {"variant": "R74K", "abundance fitness": "-0.013 ± 0.12"}, {"variant": "R74N", "abundance fitness": "0.107 ± 0.14"}, {"variant": "N47D", "abundance fitness": "-0.032 ± 0.26"}, {"variant": "N47P", "abundance fitness": "-0.909 ± 0.4"}, {"variant": "D6Q", "abundance fitness": "0.086 ± 0.22"}, {"variant": "D6W", "abundance fitness": "-0.208 ± 0.072"}, {"variant": "D6S", "abundance fitness": "-0.065 ± 0.097"}, {"variant": "D6R", "abundance fitness": "0.003 ± 0.059"}, {"variant": "L55K", "abundance fitness": "-0.853 ± 0.35"}, {"variant": "L55Y", "abundance fitness": "-0.04 ± 0.13"}, {"variant": "L55A", "abundance fitness": "-0.368 ± 0.083"}, {"variant": "L55M", "abundance fitness": "-0.237 ± 0.12"}, {"variant": "L55G", "abundance fitness": "-0.571 ± 0.068"}, {"variant": "S28H", "abundance fitness": "-0.014 ± 0.11"}, {"variant": "S28G", "abundance fitness": "0.042 ± 0.12"}, {"variant": "S28D", "abundance fitness": "0.166 ± 0.47"}, {"variant": "P25A", "abundance fitness": "-0.002 ± 0.065"}, {"variant": "P25K", "abundance fitness": "0.008 ± 0.11"}, {"variant": "C30G", "abundance fitness": "-0.582 ± 0.098"}, {"variant": "C30Q", "abundance fitness": "-0.713 ± 0.14"}, {"variant": "E59D", "abundance fitness": "0.025 ± 0.2"}, {"variant": "E59Q", "abundance fitness": "0.009 ± 0.15"}, {"variant": "E59M", "abundance fitness": "-0.029 ± 0.12"}, {"variant": "E59I", "abundance fitness": "-0.789 ± 0.35"}, {"variant": "W40V", "abundance fitness": "0.088 ± 0.11"}, {"variant": "G58Q", "abundance fitness": "-0.166 ± 0.052"}, {"variant": "Y4W", "abundance fitness": "-0.094 ± 0.13"}, {"variant": "Y4S", "abundance fitness": "-0.725 ± 0.12"}, {"variant": "Y4L", "abundance fitness": "-0.984 ± 0.16"}, {"variant": "T17Q", "abundance fitness": "0.048 ± 0.27"}, {"variant": "Q64H", "abundance fitness": "0.155 ± 0.19"}, {"variant": "Q64L", "abundance fitness": "-0.081 ± 0.06"}, {"variant": "Q64M", "abundance fitness": "-0.101 ± 0.081"}, {"variant": "Q64T", "abundance fitness": "-0.004 ± 0.092"}, {"variant": "Q64P", "abundance fitness": "-0.013 ± 0.085"}, {"variant": "T18A", "abundance fitness": "0.09 ± 0.18"}, {"variant": "T18R", "abundance fitness": "-0.168 ± 0.087"}, {"variant": "C20A", "abundance fitness": "0.124 ± 0.089"}, {"variant": "C20M", "abundance fitness": "0.068 ± 0.12"}, {"variant": "C20F", "abundance fitness": "-0.211 ± 0.23"}, {"variant": "C20N", "abundance fitness": "0.22 ± 0.26"}, {"variant": "T16P", "abundance fitness": "-0.342 ± 0.18"}, {"variant": "T16K", "abundance fitness": "-0.011 ± 0.18"}, {"variant": "Y43V", "abundance fitness": "-1.05 ± 0.19"}, {"variant": "Y43Q", "abundance fitness": "-0.86 ± 0.24"}, {"variant": "L54D", "abundance fitness": "-0.149 ± 0.13"}, {"variant": "G50R", "abundance fitness": "-0.555 ± 0.08"}, {"variant": "R57W", "abundance fitness": "-0.143 ± 0.11"}, {"variant": "R57E", "abundance fitness": "0.064 ± 0.1"}, {"variant": "D62C", "abundance fitness": "-0.177 ± 0.098"}, {"variant": "D62A", "abundance fitness": "-0.006 ± 0.053"}, {"variant": "G68Q", "abundance fitness": "-0.018 ± 0.083"}, {"variant": "G68Y", "abundance fitness": "0.097 ± 0.089"}, {"variant": "G68N", "abundance fitness": "-0.053 ± 0.14"}, {"variant": "G68K", "abundance fitness": "0.028 ± 0.088"}, {"variant": "G68W", "abundance fitness": "0.003 ± 0.08"}, {"variant": "G68S", "abundance fitness": "0.014 ± 0.052"}, {"variant": "Q24I", "abundance fitness": "-0.056 ± 0.21"}, {"variant": "Q24A", "abundance fitness": "-0.109 ± 0.082"}, {"variant": "Q10K", "abundance fitness": "0.158 ± 0.11"}, {"variant": "D19M", "abundance fitness": "-0.037 ± 0.091"}, {"variant": "D19V", "abundance fitness": "-0.101 ± 0.089"}, {"variant": "D19R", "abundance fitness": "-0.027 ± 0.075"}, {"variant": "D19E", "abundance fitness": "-0.063 ± 0.095"}, {"variant": "L42V", "abundance fitness": "-0.011 ± 0.083"}, {"variant": "L42E", "abundance fitness": "-1.16 ± 0.37"}, {"variant": "L42Y", "abundance fitness": "-0.728 ± 0.47"}, {"variant": "G38A", "abundance fitness": "-0.008 ± 0.074"}, {"variant": "G38Y", "abundance fitness": "-0.109 ± 0.18"}, {"variant": "N31L", "abundance fitness": "-0.294 ± 0.32"}, {"variant": "N31G", "abundance fitness": "-0.069 ± 0.28"}, {"variant": "W66M", "abundance fitness": "-0.093 ± 0.14"}, {"variant": "W66Y", "abundance fitness": "0.069 ± 0.12"}, {"variant": "R12E", "abundance fitness": "0.066 ± 0.072"}, {"variant": "R12M", "abundance fitness": "-0.043 ± 0.079"}, {"variant": "Q51A", "abundance fitness": "-0.012 ± 0.098"}, {"variant": "E15H", "abundance fitness": "0.066 ± 0.26"}, {"variant": "E15S", "abundance fitness": "0.005 ± 0.081"}, {"variant": "E15P", "abundance fitness": "-0.072 ± 0.14"}, {"variant": "E15Q", "abundance fitness": "0.026 ± 0.18"}, {"variant": "E15G", "abundance fitness": "-0.072 ± 0.057"}, {"variant": "E5W", "abundance fitness": "-0.209 ± 0.11"}, {"variant": "E5M", "abundance fitness": "0.097 ± 0.12"}, {"variant": "E36S", "abundance fitness": "-0.032 ± 0.11"}, {"variant": "E36P", "abundance fitness": "0.018 ± 0.16"}, {"variant": "S13V", "abundance fitness": "0.058 ± 0.1"}, {"variant": "S13L", "abundance fitness": "-0.157 ± 0.091"}, {"variant": "S13C", "abundance fitness": "-0.058 ± 0.11"}, {"variant": "Y63E", "abundance fitness": "-0.146 ± 0.079"}, {"variant": "N22H", "abundance fitness": "-0.176 ± 0.16"}, {"variant": "N22R", "abundance fitness": "0.016 ± 0.065"}, {"variant": "F27M", "abundance fitness": "0.064 ± 0.15"}, {"variant": "F27P", "abundance fitness": "-0.865 ± 0.22"}, {"variant": "T2F", "abundance fitness": "0.101 ± 0.32"}, {"variant": "T2Q", "abundance fitness": "-0.114 ± 0.16"}, {"variant": "T2G", "abundance fitness": "-0.329 ± 0.093"}, {"variant": "G11M", "abundance fitness": "-0.504 ± 0.14"}, {"variant": "S70I", "abundance fitness": "0.09 ± 0.11"}, {"variant": "Q65W", "abundance fitness": "-0.119 ± 0.062"}, {"variant": "Q65H", "abundance fitness": "-0.065 ± 0.089"}, {"variant": "Q65K", "abundance fitness": "-0.175 ± 0.22"}, {"variant": "Q65I", "abundance fitness": "-0.133 ± 0.15"}, {"variant": "R29A", "abundance fitness": "0.085 ± 0.091"}, {"variant": "P21E", "abundance fitness": "-0.074 ± 0.13"}, {"variant": "P21M", "abundance fitness": "0.075 ± 0.099"}, {"variant": "P21T", "abundance fitness": "0.006 ± 0.097"}, {"variant": "P21K", "abundance fitness": "0.016 ± 0.12"}, {"variant": "P21N", "abundance fitness": "0.112 ± 0.18"}, {"variant": "R56L", "abundance fitness": "-0.062 ± 0.074"}, {"variant": "R56C", "abundance fitness": "0.086 ± 0.16"}, {"variant": "R56A", "abundance fitness": "-0.019 ± 0.088"}, {"variant": "R56P", "abundance fitness": "-0.115 ± 0.13"}, {"variant": "R56S", "abundance fitness": "-0.611 ± 0.14"}, {"variant": "R7C", "abundance fitness": "-0.002 ± 0.15"}, {"variant": "R7F", "abundance fitness": "-0.082 ± 0.17"}, {"variant": "R7M", "abundance fitness": "-0.444 ± 0.21"}, {"variant": "R7D", "abundance fitness": "-0.153 ± 0.32"}, {"variant": "Y14G", "abundance fitness": "-0.497 ± 0.086"}, {"variant": "Y14E", "abundance fitness": "-0.375 ± 0.12"}, {"variant": "Y14T", "abundance fitness": "-0.167 ± 0.16"}, {"variant": "Y14P", "abundance fitness": "-0.922 ± 0.19"}, {"variant": "V35G", "abundance fitness": "-1.01 ± 0.16"}, {"variant": "R34A", "abundance fitness": "0.026 ± 0.099"}, {"variant": "R34W", "abundance fitness": "-0.045 ± 0.16"}, {"variant": "R34P", "abundance fitness": "-0.827 ± 0.25"}, {"variant": "R34H", "abundance fitness": "-0.163 ± 0.32"}, {"variant": "M41F", "abundance fitness": "0.104 ± 0.2"}, {"variant": "M41V", "abundance fitness": "-0.115 ± 0.087"}, {"variant": "S72C", "abundance fitness": "-0.082 ± 0.13"}, {"variant": "S72R", "abundance fitness": "0.01 ± 0.07"}, {"variant": "S72D", "abundance fitness": "-0.21 ± 0.3"}, {"variant": "S72P", "abundance fitness": "-0.025 ± 0.14"}, {"variant": "F3V", "abundance fitness": "-1.08 ± 0.13"}, {"variant": "R45S", "abundance fitness": "-0.127 ± 0.15"}, {"variant": "R45I", "abundance fitness": "-0.16 ± 0.27"}, {"variant": "R45P", "abundance fitness": "-0.955 ± 0.23"}, {"variant": "C39I", "abundance fitness": "-0.014 ± 0.27"}, {"variant": "C39L", "abundance fitness": "-0.074 ± 0.092"}, {"variant": "P61T", "abundance fitness": "-0.142 ± 0.087"}, {"variant": "P61V", "abundance fitness": "-0.083 ± 0.064"}, {"variant": "P61A", "abundance fitness": "-0.004 ± 0.061"}, {"variant": "A8N", "abundance fitness": "0.181 ± 0.34"}, {"variant": "S37A", "abundance fitness": "-0.255 ± 0.14"}, {"variant": "L69H", "abundance fitness": "-0.045 ± 0.099"}, {"variant": "L23Q", "abundance fitness": "-0.959 ± 0.34"}, {"variant": "L23N", "abundance fitness": "-0.676 ± 0.26"}, {"variant": "Y53N", "abundance fitness": "-0.062 ± 0.38"}, {"variant": "Y53P", "abundance fitness": "-0.947 ± 0.2"}, {"variant": "Y53E", "abundance fitness": "-0.142 ± 0.12"}, {"variant": "Y53C", "abundance fitness": "-0.113 ± 0.14"}]}]}
